One molecule from PMC4994864 can be followed below.

The target in the series is T1, His-yTop3 (Saccharomyces cerevisiae, UniProt P13099 1-656).
T1 sequence: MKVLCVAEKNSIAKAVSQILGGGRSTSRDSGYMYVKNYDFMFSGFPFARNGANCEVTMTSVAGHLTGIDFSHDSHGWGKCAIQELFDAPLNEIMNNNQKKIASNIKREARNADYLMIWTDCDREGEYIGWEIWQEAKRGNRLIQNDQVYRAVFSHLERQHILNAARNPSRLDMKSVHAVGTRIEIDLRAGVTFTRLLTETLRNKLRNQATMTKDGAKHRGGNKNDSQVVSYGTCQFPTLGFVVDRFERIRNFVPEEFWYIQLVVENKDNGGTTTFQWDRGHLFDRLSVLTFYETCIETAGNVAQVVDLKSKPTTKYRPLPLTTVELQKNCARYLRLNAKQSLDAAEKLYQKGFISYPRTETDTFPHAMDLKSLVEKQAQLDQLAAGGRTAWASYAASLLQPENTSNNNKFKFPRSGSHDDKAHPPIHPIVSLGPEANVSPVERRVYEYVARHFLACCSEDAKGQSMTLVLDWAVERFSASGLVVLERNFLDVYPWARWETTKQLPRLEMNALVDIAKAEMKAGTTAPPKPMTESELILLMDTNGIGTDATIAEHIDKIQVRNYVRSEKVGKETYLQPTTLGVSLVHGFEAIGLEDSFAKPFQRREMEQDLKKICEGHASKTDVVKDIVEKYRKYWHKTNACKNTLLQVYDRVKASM
In words: EMSA; gel-shift band at 50 nM protein in the RNA topoisomerase reaction; abolished by phenol-chloroform; RNA topoisomerase reaction mixture; buffer, salt, pH and temperature not given in the material. Background: A gel shift assay detects complexes by their altered migration in electrophoresis.

B1: 128-nt circular RNA topoisomerase substrate (structured_RNA)
RNA: GGGAGAUUUUUUUUUUUUUUUUUUUUGUCAGACGGAUCUUUUUUUUUUUUUUUUUUUUUCUCCCGACUGGUUUUUUUUUUUUUUUUUUUUGAUCCGUCUGACUUUUUUUUUUUUUUUUUUUUCCAGUC
modifications: circularised with T4 RNA ligase (5' end joined to 3' end)
As for B1, the binding result was “binds”.
